Measured values from the supplement of paper PMC7125110.
± gives the standard error. For some of these results: Fewer inactive variants are shown than the library holds.

B1: glmS ribozyme (parent)
chain: AUAAAAGCGCCAGAACUACAGAAAUGUAGUUGACGAGGAGGAGGUUUAUCGAAUUUUCGGCGGAUGCCUCCAAA

What was measured:
Settings in all cases: with glucosamine-6-phosphate
[1] = variants of: B1; test: kcat; higher = faster cleavage; RNA array
Summary of the method: (§1)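 Glucosamine-6-phosphate (40 μM to 10 mM) in HEPES/KCl/Mg(OAc)2 buffer was flowed over sequenced MiSeq chips, and tiles were imaged over ~14 h. Barcoded ribozyme variants there had been transcribed in situ by E. coli RNA polymerase and were tracked through a hybridised Cy3 probe at 37 °C. One- or two-exponential decay fits to per-tile medians, normalised to baseline and to non-cleaving reference variants, gave kobs. kcat and KM came from weighted Michaelis–Menten fits across concentrations.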

[2] = variants of: B1; test: KM; higher = weaker cofactor use; RNA array
Summary of the method: as §1

[3] = variants of: B1; test: self-cleavage kobs at 640 uM GlcN6P; higher = faster cleavage; RNA array
Summary of the method: as §1

[4] = variants of: B1; test: self-cleavage kobs at 2500 uM GlcN6P; higher = faster cleavage; RNA array
Summary of the method: as §1

[5] = variants of: B1; test: self-cleavage kobs at 10000 uM GlcN6P; higher = faster cleavage; RNA array
Summary of the method: as §1

[6] = variants of: B1; test: self-cleavage kobs at 40 uM GlcN6P; higher = faster cleavage; RNA array
Summary of the method: as §1

[7] = variants of: B1; test: self-cleavage kobs at 160 uM GlcN6P; higher = faster cleavage; RNA array
Summary of the method: as §1

Row | Variant | kcat [1] | KM [2] | self-cleavage kobs at 640 uM GlcN6P [3] | self-cleavage kobs at 2500 uM GlcN6P [4] | self-cleavage kobs at 10000 uM GlcN6P [5] | self-cleavage kobs at 40 uM GlcN6P [6] | self-cleavage kobs at 160 uM GlcN6P [7]
1 | G40C C70G | 0.000147 ± 2.2e-05 s⁻¹ | 973 ± 420 µM | 5.48e-05 ± 8.7e-06 s⁻¹ | 0.000163 ± 2.9e-05 s⁻¹ | 0.000128 ± 1.3e-05 s⁻¹ | – | –
2 | A39C A52U | 8.87e-05 ± 2.8e-06 s⁻¹ | 2380 ± 210 µM | 1.71e-05 ± 7.8e-06 s⁻¹ | 4.62e-05 ± 6.1e-06 s⁻¹ | 7.13e-05 ± 7.2e-06 s⁻¹ | < 1e-05 s⁻¹ | –
3 | G37C U47G U69G | 7.04e-05 ± 2.8e-05 s⁻¹ | – | 5.97e-05 ± 2e-05 s⁻¹ | 0.000138 ± 4.1e-05 s⁻¹ | – | – | 7.9e-05 ± 2.3e-05 s⁻¹
4 | G37U C50U C70U | 3.99e-05 ± 1.4e-05 s⁻¹ | – | – | – | – | – | –
5 | A39U C71A | 0.00326 ± 0.00043 s⁻¹ | 1880 ± 370 µM | 0.000728 ± 0.00015 s⁻¹ | 0.00175 ± 0.00039 s⁻¹ | 0.0028 ± 0.00031 s⁻¹ | 6.47e-05 ± 9.1e-06 s⁻¹ | 0.000353 ± 6.3e-05 s⁻¹
6 | A39U C71U | 0.0168 ± 0.0026 s⁻¹ | 1030 ± 230 µM | 0.00657 ± 0.00085 s⁻¹ | 0.0105 ± 0.0014 s⁻¹ | 0.0183 ± 0.0026 s⁻¹ | 0.000702 ± 7.4e-05 s⁻¹ | 0.00196 ± 0.00029 s⁻¹
7 | G41C U55A | 8.46e-05 ± 5e-06 s⁻¹ | 1280 ± 280 µM | – | 5.87e-05 ± 2e-05 s⁻¹ | 7.36e-05 ± 2e-05 s⁻¹ | < 1e-05 s⁻¹ | –
8 | A42U C67A | 0.00217 ± 0.00044 s⁻¹ | 1400 ± 460 µM | 0.00067 ± 9.7e-05 s⁻¹ | 0.00183 ± 0.00029 s⁻¹ | 0.00183 ± 0.00019 s⁻¹ | 7.75e-05 ± 9.8e-06 s⁻¹ | 0.000151 ± 3.4e-05 s⁻¹
9 | G41C G66C | 1.55e-05 ± 2.4e-06 s⁻¹ | – | < 1e-05 s⁻¹ | – | – | < 1e-05 s⁻¹ | –
10 | G41U U46A | 0.000481 ± 0.0001 s⁻¹ | 2400 ± 860 µM | 9.28e-05 ± 1.2e-05 s⁻¹ | 0.000324 ± 5.4e-05 s⁻¹ | 0.000362 ± 5.7e-05 s⁻¹ | – | 4.83e-05 ± 1.9e-05 s⁻¹
11 | G37A A39U | 0.00167 ± 0.00028 s⁻¹ | 3280 ± 870 µM | 0.00028 ± 4e-05 s⁻¹ | 0.000838 ± 9.2e-05 s⁻¹ | 0.00116 ± 0.00015 s⁻¹ | – | 6.13e-05 ± 1.5e-05 s⁻¹
12 | A39U C68U | 0.00901 ± 0.0018 s⁻¹ | 1340 ± 420 µM | 0.00309 ± 0.00026 s⁻¹ | 0.00636 ± 0.00063 s⁻¹ | 0.00694 ± 0.0011 s⁻¹ | 0.000444 ± 8.6e-05 s⁻¹ | 0.000829 ± 9e-05 s⁻¹
13 | G40C U45G | 0.000791 ± 0.00034 s⁻¹ | – | 0.000646 ± 0.00013 s⁻¹ | 0.000445 ± 7.5e-05 s⁻¹ | 0.00114 ± 0.00025 s⁻¹ | – | 9.8e-05 ± 1.7e-05 s⁻¹
14 | A39U U65G | 0.00369 ± 0.0011 s⁻¹ | 2880 ± 1200 µM | 0.000445 ± 9.7e-05 s⁻¹ | 0.00164 ± 0.00021 s⁻¹ | 0.0031 ± 0.00036 s⁻¹ | 6.84e-05 ± 8.5e-06 s⁻¹ | 0.0002 ± 2.9e-05 s⁻¹
15 | G41C C68U | < 1e-05 s⁻¹ | – | < 1e-05 s⁻¹ | – | – | < 1e-05 s⁻¹ | –
16 | G41U C71A | 0.000252 ± 2.1e-05 s⁻¹ | 604 ± 120 µM | 0.000128 ± 1.2e-05 s⁻¹ | 0.000235 ± 2.8e-05 s⁻¹ | 0.000219 ± 2.8e-05 s⁻¹ | – | 5.27e-05 ± 9.4e-06 s⁻¹
17 | G41U C71G | 0.000121 ± 9e-06 s⁻¹ | 1780 ± 490 µM | 2.64e-05 ± 1.1e-05 s⁻¹ | 8.28e-05 ± 1.7e-05 s⁻¹ | 0.000102 ± 9.5e-06 s⁻¹ | – | –
18 | G38C U47A | < 1e-05 s⁻¹ | – | – | < 1e-05 s⁻¹ | < 1e-05 s⁻¹ | < 1e-05 s⁻¹ | < 1e-05 s⁻¹
19 | A39C U46A | 0.000341 ± 6.3e-05 s⁻¹ | 2880 ± 980 µM | 5.57e-05 ± 1e-05 s⁻¹ | 0.000209 ± 3.4e-05 s⁻¹ | 0.000249 ± 3.6e-05 s⁻¹ | – | –
20 | A39C U46G | 0.000897 ± 0.00012 s⁻¹ | 2000 ± 420 µM | 0.000224 ± 2e-05 s⁻¹ | 0.00042 ± 6.2e-05 s⁻¹ | 0.000829 ± 0.0001 s⁻¹ | – | 6.87e-05 ± 9.7e-06 s⁻¹
21 | A39G C68A | 2.73e-05 ± 9.4e-06 s⁻¹ | – | – | – | – | – | –
22 | G40C G41U | 8.06e-05 ± 2.1e-05 s⁻¹ | – | – | 8.04e-05 ± 1.1e-05 s⁻¹ | 6.61e-05 ± 7.9e-06 s⁻¹ | – | –
23 | G38A U56A | < 1e-05 s⁻¹ | 52.5 ± 11 µM | < 1e-05 s⁻¹ | – | < 1e-05 s⁻¹ | – | –
24 | G38U A48G | < 1e-05 s⁻¹ | – | < 1e-05 s⁻¹ | – | – | < 1e-05 s⁻¹ | –
25 | A39C C71A | 6.38e-05 ± 6.4e-06 s⁻¹ | 1930 ± 720 µM | – | 4.16e-05 ± 1.1e-05 s⁻¹ | 5.25e-05 ± 7.2e-06 s⁻¹ | – | –
26 | A39U A53C | 0.00528 ± 0.0015 s⁻¹ | 2890 ± 1100 µM | 0.000759 ± 8.9e-05 s⁻¹ | 0.00228 ± 0.00027 s⁻¹ | 0.00454 ± 0.00047 s⁻¹ | 9.69e-05 ± 1.1e-05 s⁻¹ | 0.000314 ± 4.2e-05 s⁻¹
27 | A39U A53G | 0.0183 ± 0.0065 s⁻¹ | 1410 ± 620 µM | 0.0052 ± 0.00085 s⁻¹ | 0.0187 ± 0.0064 s⁻¹ | 0.0166 ± 0.0029 s⁻¹ | 0.000648 ± 6.7e-05 s⁻¹ | 0.00141 ± 0.00023 s⁻¹
28 | G37U U69C | 1.14e-05 ± 5.4e-06 s⁻¹ | – | – | – | < 1e-05 s⁻¹ | – | < 1e-05 s⁻¹
29 | G40A G43C | < 1e-05 s⁻¹ | – | < 1e-05 s⁻¹ | – | – | – | –
30 | G40C C71A | 0.00654 ± 0.0028 s⁻¹ | – | 0.00213 ± 0.00024 s⁻¹ | – | 0.00527 ± 0.00096 s⁻¹ | 0.000225 ± 3.8e-05 s⁻¹ | 0.000451 ± 6.2e-05 s⁻¹
